Assay results: the Human Domainome abundance scans (Beltran et al. 2025)
± gives the uncertainty stated by the source.

B1: TOX high mobility group box family member 3, residues 256 to 323; numbered along this chain, O15405 (parent)
chain: QKPVSAYALFFRDTQAAIKGQNPNATFGEVSKIVASMWDSLGEEQKQVYKRKTEAAKKEYLKALAAYR

Variants of: B1
Assay: abundance fitness (aPCA) (normalised: wild type 0, dead -1); higher = more abundant; growth selection in yeast, the domain comes from the species named
Conditions: Homo sapiens

Row | Variant | abundance fitness
1 | QKHVSAYALFFRDTQAAIKGQNPNATFGEVSKIVASMWDSLGEEQKQVYKRKTEAAKKEYLKALAAYR | -0.068 ± 0.059
2 | QKDVSAYALFFRDTQAAIKGQNPNATFGEVSKIVASMWDSLGEEQKQVYKRKTEAAKKEYLKALAAYR | 0.375 ± 0.15
3 | QKSVSAYALFFRDTQAAIKGQNPNATFGEVSKIVASMWDSLGEEQKQVYKRKTEAAKKEYLKALAAYR | -0.052 ± 0.046
4 | QKAVSAYALFFRDTQAAIKGQNPNATFGEVSKIVASMWDSLGEEQKQVYKRKTEAAKKEYLKALAAYR | -0.213 ± 0.057
5 | QKYVSAYALFFRDTQAAIKGQNPNATFGEVSKIVASMWDSLGEEQKQVYKRKTEAAKKEYLKALAAYR | -0.332 ± 0.12
6 | QKPVSAYALFFRDTQAAIKGQNPNGTFGEVSKIVASMWDSLGEEQKQVYKRKTEAAKKEYLKALAAYR | -0.696 ± 0.1
7 | QKPVSAYALFFRDTQAAIKGQNPNATFGEVSKIVASMWDSLGEEQKQVYKRKTEAAKKEYQKALAAYR | 0.146 ± 0.16
8 | QKPVSAFALFFRDTQAAIKGQNPNATFGEVSKIVASMWDSLGEEQKQVYKRKTEAAKKEYLKALAAYR | -0.339 ± 0.15
9 | QKPVSAYALFFRDTQMAIKGQNPNATFGEVSKIVASMWDSLGEEQKQVYKRKTEAAKKEYLKALAAYR | -0.401 ± 0.14
10 | QKPVSAYALFFRDTQKAIKGQNPNATFGEVSKIVASMWDSLGEEQKQVYKRKTEAAKKEYLKALAAYR | 0.009 ± 0.067
11 | QKPVSAYALFFRDTQRAIKGQNPNATFGEVSKIVASMWDSLGEEQKQVYKRKTEAAKKEYLKALAAYR | 0.021 ± 0.053
12 | QKPVSAYALFFRDTQAAIKGQNPNATFGEVSKIVASMWDSLGEEQKQVYKRKTEAAKKEYLKALAAYI | -0.65 ± 0.22
13 | QKPVSAYALFFRDTQAAIKGQNPNATFGEVSKIVASMWDSLGEEQKQVYKRKTEAAKKEYLEALAAYR | -0.006 ± 0.059
14 | QKPVSAYALFFRDTQAAIKGQNPNATFGEVSKIVASMWDSIGEEQKQVYKRKTEAAKKEYLKALAAYR | -0.187 ± 0.15
15 | QKPVSAYALFFRDTQAAIKGQNPNATFGEVSKIVASMWDSLGEEQKQVYKRQTEAAKKEYLKALAAYR | -0.291 ± 0.071
16 | QKPVRAYALFFRDTQAAIKGQNPNATFGEVSKIVASMWDSLGEEQKQVYKRKTEAAKKEYLKALAAYR | -0.348 ± 0.08
17 | QKPVKAYALFFRDTQAAIKGQNPNATFGEVSKIVASMWDSLGEEQKQVYKRKTEAAKKEYLKALAAYR | -0.166 ± 0.14
18 | QKPVSAYALFFRDTQAAIKGQNPNATFGEVSKIVASMWDSLGEECKQVYKRKTEAAKKEYLKALAAYR | -0.486 ± 0.087
19 | QKPVSAYALFFRDTQAAIKGQNPNATFGEVSAIVASMWDSLGEEQKQVYKRKTEAAKKEYLKALAAYR | -0.048 ± 0.058
20 | QKPVSAYALFFRDTQAAIKGQNPNATFGEVSNIVASMWDSLGEEQKQVYKRKTEAAKKEYLKALAAYR | 0.214 ± 0.21
21 | QKPVSAYALFFRDTQAAIKGQNPNATFGEVSPIVASMWDSLGEEQKQVYKRKTEAAKKEYLKALAAYR | -0.966 ± 0.16
22 | QKPVSAYALFFRDTQAAIKGQNPNATFGEVSKIVMSMWDSLGEEQKQVYKRKTEAAKKEYLKALAAYR | -0.22 ± 0.09
23 | QKPVSAYALYFRDTQAAIKGQNPNATFGEVSKIVASMWDSLGEEQKQVYKRKTEAAKKEYLKALAAYR | 0.047 ± 0.12
24 | QKPVSAYALFFRDTQAAIKGQNPNATFGSVSKIVASMWDSLGEEQKQVYKRKTEAAKKEYLKALAAYR | -0.341 ± 0.067
25 | QKPVSAYALFFRDTQAAIKGQNPNATFGDVSKIVASMWDSLGEEQKQVYKRKTEAAKKEYLKALAAYR | -0.174 ± 0.087
26 | QKPVSAYALFFRDTQAAIKGQNPNATFGEVSKIVASMWDSLGEEQKQVYKRKTEAAKKIYLKALAAYR | -0.663 ± 0.33
27 | QKPVSAYALFFRDTQAAIKGQNPNATFGEVSKIVASMWDSLGEEQKQVYKRKTEAAKKEYLKALAIYR | -0.333 ± 0.15

Row | Variant | abundance fitness
28 | QKPVSAYPLFFRDTQAAIKGQNPNATFGEVSKIVASMWDSLGEEQKQVYKRKTEAAKKEYLKALAAYR | -0.464 ± 0.12
29 | QKPVSAYFLFFRDTQAAIKGQNPNATFGEVSKIVASMWDSLGEEQKQVYKRKTEAAKKEYLKALAAYR | -0.33 ± 0.18
30 | QKPVSAYALFFRDTQAAIKGQNPNATFGEVSKCVASMWDSLGEEQKQVYKRKTEAAKKEYLKALAAYR | -0.324 ± 0.089
31 | QKPVSAYALFFRDTQAAIKGQNPNATFGEVSKEVASMWDSLGEEQKQVYKRKTEAAKKEYLKALAAYR | -0.131 ± 0.067
32 | QKPVSAYALFFRDEQAAIKGQNPNATFGEVSKIVASMWDSLGEEQKQVYKRKTEAAKKEYLKALAAYR | -0.292 ± 0.057
33 | QKPVSAYALFFRDKQAAIKGQNPNATFGEVSKIVASMWDSLGEEQKQVYKRKTEAAKKEYLKALAAYR | 0.066 ± 0.077
34 | QKPVSAYALFFRDPQAAIKGQNPNATFGEVSKIVASMWDSLGEEQKQVYKRKTEAAKKEYLKALAAYR | -0.62 ± 0.12
35 | QKPVSAYALFFQDTQAAIKGQNPNATFGEVSKIVASMWDSLGEEQKQVYKRKTEAAKKEYLKALAAYR | -0.057 ± 0.094
36 | QKPVSAYALFFIDTQAAIKGQNPNATFGEVSKIVASMWDSLGEEQKQVYKRKTEAAKKEYLKALAAYR | -0.221 ± 0.11
37 | QKPVSAYALFFTDTQAAIKGQNPNATFGEVSKIVASMWDSLGEEQKQVYKRKTEAAKKEYLKALAAYR | -0.146 ± 0.11
38 | QKPVSAYALFFKDTQAAIKGQNPNATFGEVSKIVASMWDSLGEEQKQVYKRKTEAAKKEYLKALAAYR | 0.022 ± 0.12
39 | QKPVSAYALFFRDTQAAIKGQNPNATFGEVSKIVASMWDSLGEEQKQVYKRKTEAAKKEYLKALPAYR | 0.117 ± 0.069
40 | QKPVSAYALFFRDTQAAIKGQNPNATFGEVSKIVASMWDSLGEEQKQVYKRKTEAAKKEYLKALKAYR | 0.036 ± 0.081
41 | QKPVSAYALFFRDTQAAIKGQNPNATFGEVSKIVASMWDSLGEEQKQVYKRKTEAAKKEYLKALEAYR | 0.113 ± 0.047
42 | QKPVSAYALFFRDTQAAIKGQNPNATFGEVSKIVASMWDSLGEEQKEVYKRKTEAAKKEYLKALAAYR | -0.052 ± 0.1
43 | QKPVSAYALFFRDTQAAIKGQNPNATFGEVSKIVASMWDSLGEEQKQVYKRKTEAALKEYLKALAAYR | -0.346 ± 0.056
44 | QKPVSAYALFFRDTQAAIKGQNPNATFGEVSKIVASMWDSLGEEQKQVYKRKTEAAVKEYLKALAAYR | -0.252 ± 0.057
45 | QKPVSAYALFFRDTQAAIKGANPNATFGEVSKIVASMWDSLGEEQKQVYKRKTEAAKKEYLKALAAYR | -0.051 ± 0.058
46 | QKPVSAYALFFRDTQAAIKGHNPNATFGEVSKIVASMWDSLGEEQKQVYKRKTEAAKKEYLKALAAYR | -0.175 ± 0.082
47 | QKPVSAYALFFRDTQAAIKGMNPNATFGEVSKIVASMWDSLGEEQKQVYKRKTEAAKKEYLKALAAYR | -0.199 ± 0.17
48 | QKPVSAYALFFRDTQAAIKGQNPNATFGEVSKIVASMWSSLGEEQKQVYKRKTEAAKKEYLKALAAYR | 0.021 ± 0.045
49 | QKPVSAYALFFRDTQAAIKGQNPNATFGEVSKIVASMWDSLGEEQKQVYKDKTEAAKKEYLKALAAYR | 0.101 ± 0.083
50 | QKPVSAYALFFRDTQAAIKGQNPNATFGEVSKIVASMWDSLGEEQKQVYKMKTEAAKKEYLKALAAYR | -0.069 ± 0.056
51 | QKPVSAYALFFRDTQAAIKGQNPNATFGEVSKIVASMWDSLGEEQKQVYKTKTEAAKKEYLKALAAYR | 0.042 ± 0.047
52 | QKPVSAYALFFRDTQAAIKGQNPNATFGEVSKIEASMWDSLGEEQKQVYKRKTEAAKKEYLKALAAYR | -0.963 ± 0.17
53 | QKPVSAYALFFRDTQAAIKGQNPNAIFGEVSKIVASMWDSLGEEQKQVYKRKTEAAKKEYLKALAAYR | -1.01 ± 0.23
54 | QKPVSAYALFFRDTQAAIKGQNPNATFGEVSKIVACMWDSLGEEQKQVYKRKTEAAKKEYLKALAAYR | -0.317 ± 0.24

Row | Variant | abundance fitness
55 | QKPVSAYALFFRDTQAAIKGQNPNATFGEVSKIVAPMWDSLGEEQKQVYKRKTEAAKKEYLKALAAYR | -0.587 ± 0.12
56 | QKPVSAYALFFRDTQAAIKGQNPNATFGEVSKIVAEMWDSLGEEQKQVYKRKTEAAKKEYLKALAAYR | 0.044 ± 0.042
57 | QKPVSAYALFFRDTQAAIKGQHPNATFGEVSKIVASMWDSLGEEQKQVYKRKTEAAKKEYLKALAAYR | 0.037 ± 0.085
58 | QKPVSAYALFFRDTQAAIKGQIPNATFGEVSKIVASMWDSLGEEQKQVYKRKTEAAKKEYLKALAAYR | -0.515 ± 0.13
59 | QEPVSAYALFFRDTQAAIKGQNPNATFGEVSKIVASMWDSLGEEQKQVYKRKTEAAKKEYLKALAAYR | -0.464 ± 0.11
60 | QKPVSAYALFFRDTQAAIKGQNPWATFGEVSKIVASMWDSLGEEQKQVYKRKTEAAKKEYLKALAAYR | -0.509 ± 0.091
61 | QKPVSAYALFFRDTQAAIKGQNPEATFGEVSKIVASMWDSLGEEQKQVYKRKTEAAKKEYLKALAAYR | -0.001 ± 0.07
62 | QKPVSAYALFFRDTQAAIKGQNPNATFGEVSKIVASMWDSLGSEQKQVYKRKTEAAKKEYLKALAAYR | -0.118 ± 0.051
63 | QKPVSAYALFFRDTQAAIKGQNPNATFGEVSKIVASMWDSLGEEQKQVYKRKTEACKKEYLKALAAYR | -0.104 ± 0.078
64 | QKPVSQYALFFRDTQAAIKGQNPNATFGEVSKIVASMWDSLGEEQKQVYKRKTEAAKKEYLKALAAYR | -0.185 ± 0.17
65 | QKPVSAYALFFRDTQAAIKSQNPNATFGEVSKIVASMWDSLGEEQKQVYKRKTEAAKKEYLKALAAYR | 0.1 ± 0.047
66 | QKPVSAYALFFRDTQAAIKCQNPNATFGEVSKIVASMWDSLGEEQKQVYKRKTEAAKKEYLKALAAYR | -0.116 ± 0.061
67 | QKPVSAYALFFRDTQAAIKFQNPNATFGEVSKIVASMWDSLGEEQKQVYKRKTEAAKKEYLKALAAYR | -0.073 ± 0.11
68 | QKPVSAYALFFRDTQAAIKGQNPNATFGEVSKIVASMWDSLFEEQKQVYKRKTEAAKKEYLKALAAYR | -1.05 ± 0.32
69 | QKPVSAYALFFRDTQAAIKGQNPNATFGEVSKIVASMWDSLNEEQKQVYKRKTEAAKKEYLKALAAYR | 0.108 ± 0.079
70 | QKPVSAYALFFRDTQAAIKGQNPNATIGEVSKIVASMWDSLGEEQKQVYKRKTEAAKKEYLKALAAYR | -0.071 ± 0.22
71 | QKPVSAYALFFRDTQAAIKGQNPNATYGEVSKIVASMWDSLGEEQKQVYKRKTEAAKKEYLKALAAYR | 0.029 ± 0.11
72 | QKPVSAYALFFRDTQAAIKGQNPNATQGEVSKIVASMWDSLGEEQKQVYKRKTEAAKKEYLKALAAYR | 0.093 ± 0.079
73 | QKPVSAYALFFRDTQAAIKGQNPNATFGEVSKIVASMWDSLGEEQKQVYKRKTPAAKKEYLKALAAYR | -0.118 ± 0.055
74 | QKPVSAYALFWRDTQAAIKGQNPNATFGEVSKIVASMWDSLGEEQKQVYKRKTEAAKKEYLKALAAYR | -0.134 ± 0.088
75 | QKPVSAYALFMRDTQAAIKGQNPNATFGEVSKIVASMWDSLGEEQKQVYKRKTEAAKKEYLKALAAYR | -0.101 ± 0.071
76 | QKPVSAYALFLRDTQAAIKGQNPNATFGEVSKIVASMWDSLGEEQKQVYKRKTEAAKKEYLKALAAYR | -0.176 ± 0.069
77 | QKPVSAYALFFRDTQAAIKGQNPNATFGEHSKIVASMWDSLGEEQKQVYKRKTEAAKKEYLKALAAYR | -0.823 ± 0.21
78 | QKPVSAYALFFRDTQAAIKGQNPNATFGEVSKIVASMWDSLGEEQKQVYKRKTEAAKDEYLKALAAYR | -0.01 ± 0.094
79 | QKPVSAYALFFRDTQAAIKGQNPNATFGEVSKIVASMWDSLGEEQKQVYKRKTEAAKIEYLKALAAYR | -0.204 ± 0.13
